Like-named read-outs stand apart in the source and are kept apart here.
Legend:
human CCR8 [1] = target: T1, human CCR8 (human, UniProt P51685 1-355); experiment: FACS, CHO-hCCR8
T1 construct: also called hCCR8; P51685_CCR8_HUMAN

mouse FcRn = target: T2, mouse FcRn (mouse, UniProt Q61559 22-297, limits assumed); experiment: SPR pH 6.0, FcRn immobilised
T2 sequence (looked up): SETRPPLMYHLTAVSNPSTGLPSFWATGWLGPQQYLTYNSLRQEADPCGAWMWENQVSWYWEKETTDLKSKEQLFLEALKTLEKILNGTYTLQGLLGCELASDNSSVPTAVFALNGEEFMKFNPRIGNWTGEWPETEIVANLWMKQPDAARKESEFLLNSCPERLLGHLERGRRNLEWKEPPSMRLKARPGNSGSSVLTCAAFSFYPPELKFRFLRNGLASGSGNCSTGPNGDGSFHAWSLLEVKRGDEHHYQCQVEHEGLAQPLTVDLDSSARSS

cynomolgus FcRn = cynomolgus FcRn (cynomolgus, UniProt Q8SPV9 24-297, limits assumed); experiment: SPR pH 6.0, FcRn immobilised
Chain of cynomolgus FcRn (Q8SPV9 24-297 limits assumed, form in doubt): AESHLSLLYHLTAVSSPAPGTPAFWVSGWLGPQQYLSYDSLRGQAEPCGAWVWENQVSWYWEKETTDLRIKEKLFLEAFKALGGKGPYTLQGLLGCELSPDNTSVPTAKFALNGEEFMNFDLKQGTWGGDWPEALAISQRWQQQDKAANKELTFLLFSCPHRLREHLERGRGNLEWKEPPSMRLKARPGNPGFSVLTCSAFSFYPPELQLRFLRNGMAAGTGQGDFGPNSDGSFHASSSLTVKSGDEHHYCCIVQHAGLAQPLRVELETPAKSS

human FcRn = target: T3, human FcRn (human, UniProt P55899 24-297); experiment: SPR pH 6.0, FcRn immobilised
T3 construct: also called neonatal Fc receptor
T3 sequence (P55899 24-297 limits assumed, form in doubt): as the sequence (Q8SPV9 24-297 limits assumed, form in doubt) above, with D39N, Q44E, S99G, G189S, N190S, M217L, T269S counted along it

cynomolgus CCR8 [2] = target: T4, cynomolgus CCR8 (cynomolgus, UniProt O97665 1-356 (rhesus entry)); experiment: FACS, CHO-cynoCCR8
T4 construct: also called cynoCCR8; G7NYJ2_CCR8_MACFA
T4 sequence (O97665 other isoform, or with tags, fused parts or gaps): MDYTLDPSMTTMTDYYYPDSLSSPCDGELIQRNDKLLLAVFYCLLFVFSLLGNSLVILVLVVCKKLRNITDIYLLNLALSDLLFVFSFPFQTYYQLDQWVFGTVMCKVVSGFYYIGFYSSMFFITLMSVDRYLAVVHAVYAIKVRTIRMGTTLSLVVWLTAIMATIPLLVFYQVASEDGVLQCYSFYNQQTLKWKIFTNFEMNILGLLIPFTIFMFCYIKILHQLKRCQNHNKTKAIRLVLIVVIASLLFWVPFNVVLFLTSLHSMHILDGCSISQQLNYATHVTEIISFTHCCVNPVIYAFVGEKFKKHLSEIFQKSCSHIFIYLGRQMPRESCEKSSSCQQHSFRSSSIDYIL

[3] = target: T5, FcRn of the FcRn column (Roche, Order No. 8128057001); experiment: FcRn affinity chromatography, pH gradient
T5 construct: also called immobilized FcRn
T5 sequence (P55899 24-297, chain 1 of 2): as the sequence (Q8SPV9 24-297 limits assumed, form in doubt) above, with D39N, Q44E, S99G, G189S, N190S, M217L, T269S counted along it
T5 sequence (P61769 21-119, chain 2 of 2, further chain): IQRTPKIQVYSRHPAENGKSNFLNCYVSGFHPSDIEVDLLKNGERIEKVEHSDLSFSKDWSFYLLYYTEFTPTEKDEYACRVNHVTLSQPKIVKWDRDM
Procedure: A FcRn column (Roche, Order No. 8128057001; prepacked with approximately 1 mL resin; binding capacity: ≥100 μg IgG) was equilibrated with running buffer A: 20 mM MES/HCl pH 5.5 140 mM NaCl. 30 μL of each antibody (1 mg/mL in equilibration buffer) was applied to the column.

human CCR8 [4] = target: T1, human CCR8; experiment: FACS, HuT78 (endogenous hCCR8)
human CCR8 [5] = target: T1, human CCR8; experiment: FACS screening, full length human IgG1
cynomolgus CCR8 [6] = target: T4, cynomolgus CCR8; experiment: FACS screening, full length human IgG1
human CCR8 [7] = target: T1, human CCR8; experiment: FACS, CHO-hCCR8; remark: listed apart in the source
cynomolgus CCR8 [8] = target: T4, cynomolgus CCR8; experiment: FACS, CHO-cynoCCR8; remark: listed apart in the source
[9] = target: T6, HUMAN_NTerm_Ys peptide (# 8) (human, Y(SO3) at printed positions 4, 16, 18 (Y3, Y15, Y17 of CCR8); C-terminal K(Biot)); experiment: SPR, peptide on SA chip
T6 construct: sulfated; natural cysteine between TRD and LID replaced by serine
T6 peptide: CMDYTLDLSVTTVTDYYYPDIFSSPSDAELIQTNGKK
Procedure: (§1) SPR binding assays were performed to systematically evaluate antibody binding to a) non-sulfated vs sulfated antigen, b) TRD vs N term and c) human vs cynomolgus CCR8. SPR binding assays were performed on a Biacore T200 instrument (Cytiva) at 25° C. with assay buffer 1× HBS-EP+(order no. BR100826, Cytiva). Peptides were used as ligands and were captured using their C-terminal biotin label on to a streptavidin coated sensor chip (“Sensor Chip SA”, Order No. BR100398, Cytiva). To this end, a terminal lysine (K) was added at the C-term of each peptide for biotinylation. For the N term of CCR8, the naturally occurring cysteine between TRD and LID domain was replaced by a serine. […] The concentration of analyte in assay buffer was 0.05-10 nM and the measurement was performed in multicycle kinetics mode. The sensor surface was regenerated with glycine pH 2.0 after each cycle. Obtained sensorgrams were double referenced (subtraction of reference flow cell signal and buffer injection) and were fitted to a 1:1 Langmuir binding model to derive kinetic data using the Biacore T200 Evaluation software.

[10] = target: T7, HUMAN_TRD_Ys peptide (# 4) (human, Y(SO3) at printed positions 4, 16, 18 (Y3, Y15, Y17 of CCR8); C-terminal K(Biot)); experiment: SPR, peptide on SA chip
T7 construct: sulfated
T7 peptide: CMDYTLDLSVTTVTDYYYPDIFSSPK
Procedure: as §1

[11] = target: T8, Cyno_NTerm_Ys peptide (# 6) (cynomolgus, Y(SO3) at printed positions 4, 16, 18 (Y3, Y15, Y17 of CCR8); C-terminal K(Biot)); experiment: SPR, peptide on SA chip
T8 construct: sulfated; natural cysteine between TRD and LID replaced by serine
T8 peptide: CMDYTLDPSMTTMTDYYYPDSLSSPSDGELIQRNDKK
Procedure: as §1

[12] = target: T9, Cyno_TRD_Ys peptide (# 2) (cynomolgus, Y(SO3) at printed positions 4, 16, 18 (Y3, Y15, Y17 of CCR8); C-terminal K(Biot)); experiment: SPR, peptide on SA chip
T9 construct: sulfated
T9 peptide: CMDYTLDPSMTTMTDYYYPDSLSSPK
Procedure: as §1

human CCR8 [13] = target: T1, human CCR8; experiment: FACS
cynomolgus CCR8 [14] = target: T4, cynomolgus CCR8; experiment: FACS
murine CCR8 [15] = target: T10, murine CCR8 (mouse, UniProt P56484 1-353); experiment: cell-based or functional assay
T10 sequence: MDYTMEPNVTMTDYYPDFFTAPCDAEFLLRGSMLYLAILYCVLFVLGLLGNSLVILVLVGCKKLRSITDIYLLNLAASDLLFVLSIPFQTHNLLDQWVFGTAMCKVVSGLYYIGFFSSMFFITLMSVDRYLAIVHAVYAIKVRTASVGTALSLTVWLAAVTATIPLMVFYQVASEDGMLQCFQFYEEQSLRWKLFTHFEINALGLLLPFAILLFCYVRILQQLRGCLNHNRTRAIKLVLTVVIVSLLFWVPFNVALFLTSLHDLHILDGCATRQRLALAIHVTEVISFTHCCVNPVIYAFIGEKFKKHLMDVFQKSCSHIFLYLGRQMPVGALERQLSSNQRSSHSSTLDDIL

murine CCR8 [16] = target: T10, murine CCR8; experiment: FACS, CHO-mCCR8

B1: TPP-27495 (antibody, human IgG1, lambda)
heavy: EVQLLESGGGLVQPGGSLRLSCAASGFTFSSYGMHWVRQAPGKGLEWVSAINWNGGSTGYADSVKGRFTISRDNSKNTLYLQMNSLRAEDTAVYYCARGHHSGYDGRFFDYWGQGTLVTVSSASTKGPSVFPLAPSSKSTSGGTAALGCLVKDYFPEPVTVSWNSGALTSGVHTFPAVLQSSGLYSLSSVVTVPSSSLGTQTYICNVNHKPSNTKVDKKVEPKSCDKTHTCPPCPAPELLGGPSVFLFPPKPKDTLYITREPEVTCVVVDVSHEDPEVKFNWYVDGVEVHNAKTKPREEQYNSTYRVVSVLTVLHQDWLNGKEYKCKVSNKALPAPIEKTISKAKGQPREPQVYTLPPSRDELTKNQVSLTCLVKGFYPSDIAVEWESNGQPENNYKTTPPVLDSDGSFFLYSKLTVDKSRWQQGNVFSCSVMHEALHNHYTQKSLSLSPGK
light: not shown
modifications: 70% afucosylated
notes: also called TPP-27495 (YTE); copies: 2 + 2
Binder B1 has an EC50 (human CCR8 [1]) of 1.32 nM, a Kd (mouse FcRn) of 33 nM and a Kd (cynomolgus FcRn) of 30 nM. For the same binder, the Kd (human FcRn) was 29 nM, the EC50 (cynomolgus CCR8 [2]) was 0.535 nM and the “pH at Elution” value [3] was 7.88 pH. It also gave an EC50 (human CCR8 [4]) of 3.25 nM.

B2: TPP-17580 (antibody, human IgG1, lambda, V domains shown)
VH: EVQLLESGGGLVQPGGSLRLSCAASGFTFSSYGMHWVRQAPGKGLEWVSGVSWNGSRTRYADSVKGRFTISRDNSKNTLYLQMNSLRAEDTAVYYCTRGSYNSGWYAVSWGQGTLVTVSS
VL: QSVLTQPPSASGTPGQRVTISCSGSSSNIGSYPVNWYQQLPGTAPKLLIYRNNQRPSGVPDRFSGSKSGTSASLAISGLRSEDEADYYCSSYSVTDNLIFGGGTKLTVLG
notes: also called 497A-M193-A08-1-hIgG1Lambda
B2: binds (human CCR8 [5]); binds (cynomolgus CCR8 [6]).

B3: TPP-21181 (antibody, human IgG1, lambda, V domains shown)
VH: EVQLLESGGGLVQPGGSLRLSCAASGFTFSSYAMSWVRQAPGKGLEWVSGIRWNNGSKGYAGSVKGRFTISRDNSKNTLYLQMNSLRAEDTAVYYCARSGNYYYGYHGMDVWGQGTLVTVSS
VL: QSVLTQPPSASGTPGQRVTISCSGGNSNIGTYFVSWYQQLPGTAPKLLIYTNNQRPSGVPDRFSGSKSGTSASLAISGLRSEDEADYYCETWDSNTRVFGGGTKLTVLG
notes: also called 18205-gl46-hIgG1-wt-Lambda
B3 showed an EC50 (human CCR8 [7]) of 4.8 nM, an EC50 (cynomolgus CCR8 [8]) of 1.8 nM and an Activity in % [9] of 17%. The Kd [9] was ~2.88 nM, the koff [9] was ~0.0222 s⁻¹ and the kon [9] was ~7.69e+06 M⁻¹ s⁻¹. For the same binder, the Activity in % [10] was 23.8%, the Kd [10] was ~2.87 nM and the koff [10] was ~16 s⁻¹. For the same binder, the kon [10] was ~5.56e+09 M⁻¹ s⁻¹, the Activity in % [11] was 78.5% and the Kd [11] was ~0.868 nM. For the same binder, the koff [11] was ~10.7 s⁻¹, the Activity in % [12] was 52.9% and the Kd [12] was ~1.39 nM. It also gave a koff [12] of ~5.87 s⁻¹ and a kon [12] of ~4.23e+09 M⁻¹ s⁻¹.

B4: TPP-17575 (antibody, human IgG1, lambda, V domains shown)
VH: EVQLLESGGGLVQPGGSLRLSCAASGFTFRSYAMHWVRQAPGKGLEWVSLISWDGGSTYYADSVKGRFTISRDNSKNTLYLQMNSLRAEDTAVYYCARGGIGRRPGLEYWGQGTLVTVSS
VL: QSVLTQPPSASGTPGQRVTISCSGSSSNIGNNYVSWYQQLPGTAPKLLIYGNSNRPSGVPDRFSGSKSGTSASLAISGLRSEDEADYYCQTWGTGIRVFGGGTKLTVLG
notes: also called 497A-M181-C17-1-hIgG1Lambda
B4: binds (human CCR8 [5]); binds (cynomolgus CCR8 [6]).

B5: TPP-17576 (antibody, human IgG1, lambda, V domains shown)
VH: EVQLLESGGGLVQPGGSLRLSCAASGFTFSSYAMSWVRQAPGKGLEWVGRIRSKANSYATAYAASVKGRFTISRDNSKNTLYLQMNSLRAEDTAVYYCTRPLDSWGQGTLVTVSS
VL: QSVLTQPPSASGTPGQRVTISCSGSSSNIGNNAVNWYQQLPGTAPKLLIYRNNQRSSGVPDRFSGSKSGTSASLAISGLRSEDEADYYCQSYDNSLSASVFGGGTKLTVLG
notes: also called 497A-M136-021-1-hIgG1Lambda
B5: binds (human CCR8 [5]); binds (cynomolgus CCR8 [6]).

B6: TPP-17579 (antibody, human IgG1, lambda, V domains shown)
VH: EVQLLESGGGLVQPGGSLRLSCAASGFTFVTYWMTWVRQAPGKGLEWVSGVSWNGSRTHYVDSVKRRFTISRDNSKNTLYLQMNSLRAEDTAVYYCARYSGYPDYYGMDVWGQGTLVTVSS
VL: QSVLTQPPSASGTPGQRVTISCSGSWSNIGNDNVYWYQQLPGTAPKLLIYRNNQRPSGVPDRFSGSKSGTSASLAISGLRSEDEADYYCQSYDRSLSGSVFGGGTKLTVLG
notes: also called 497A-M180-K04-1-hIgG1Lambda
B6: binds (human CCR8 [5]); binds (cynomolgus CCR8 [6]).

B7: TPP-17581 (antibody, human IgG1, lambda, V domains shown)
VH: EVQLLESGGGLVQPGGSLRLSCAASGFTFSNYRMTWVRQAPGKGLEWVSGINWNGGSTGYADSVKGRFTISRDNSKNTLYLQMNSLRAEDTAVYYCARGRFDTRGFYGFDYWGQGTLVTVSS
VL: QSVLTQPPSASGTPGQRVTISCTGSSSNIGAGYDVHWYQQLPGTAPKLLIYSHNQRPSGVPDRFSGSKSGTSASLAISGLRSEDEADYYCSAWDSSLSAWVFGGGTKLTVLG
notes: also called 497A-M177-L03-1-hIgG1Lambda
B7: binds (human CCR8 [5]); binds (cynomolgus CCR8 [6]).

B8: TPP-18207 (antibody, human IgG1, lambda, V domains shown)
VH: EVQLLESGGGLVQPGGSLRLSCAASGFTFSNAWMSWVRQAPGKGLEWVSGINWNGGSTGYADSVKGRFTISRDNSKNTLYLQMNSLRAEDTAVYYCARTYTGNYGPYFDYWGQGTLVTVSS
VL: QSVLTQPPSASGTPGQRVTISCTGSSSNIGAGYDVHWYQQLPGTAPKLLIYKNNQRPSGVPDRFSGSKSGTSASLAISGLRSEDEADYYCAAWDDSLRGWVFGGGTKLTVLG
notes: also called 001-B08_497A-M301-B18 + 497A-M316-D16-hIgG1Lambda
B8: binds (human CCR8 [5]); binds (cynomolgus CCR8 [6]).

B9: TPP-14095 (antibody, human IgG1, lambda, V domains shown)
VH: EVQLLESGGGLVQPGGSLRLSCAASGFTFSSYGMHWVRQAPGKGLEWVSAISGSGGSTYYADSVKGRFTISRDNSKNTLYLQMNSLRAEDTAVYYCARGRQLGSWGQGTLVTVSS
VL: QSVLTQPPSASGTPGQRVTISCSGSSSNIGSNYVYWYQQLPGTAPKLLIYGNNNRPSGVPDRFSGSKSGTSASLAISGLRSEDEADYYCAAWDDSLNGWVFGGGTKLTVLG
notes: anti-murine CCR8, human IgG1 lambda; also called 497A-M005-E07-hIgG1Lambda
In the case of B9, the binding result (human CCR8 [13]) is reported as “no binding”, the binding result (cynomolgus CCR8 [14]) is reported as “no binding” and the “IC50, Ca flux assay” value (murine CCR8 [15]) is reported as 1.65 nM. It also gave an EC50 (murine CCR8 [16]) of 0.7 nM.

Reference: patent publication US20230250178A1 (published 2023)
